Assay results as given in patent publication US20130123349A1.
Read-outs that look alike come from different tables or passages of the source.

Assays:
[1] = target: T1, […] peptide, GPC-(GPP)5-[…]-(GPP)5-GPC-NH2, cross-linked
[2] = target: T2, GFOGER peptide, GPC(GPP)5GFOGER(GPP)5GPC, cross-linked; experiment: SPR, Aegyptin over immobilized cross-linked GFOGER peptide, two-state model; Kd1
[3] = target: T2, GFOGER peptide, …; experiment: SPR, Aegyptin over immobilized cross-linked GFOGER peptide, two-state model
[4] = target: T1, […] peptide, …; remark: listed apart in the source
[5] = target: T1, […] peptide, …; experiment: SPR, Aegyptin over immobilized cross-linked RGQOGVMGFO peptide, two-state model
[6] = target: T2, GFOGER peptide, …; experiment: SPR, Aegyptin over immobilized cross-linked GFOGER peptide, two-state model; Ka1

B1: recombinant Aegyptin, O01949 20-273 (protein)
chain: RPMPEDEEPVAEGGDDDASGESEGEEETTDDAGGDGGEEENEGEEHAGDKDAGGEDTGKEENTGHDDAGEEDAGEEDAGEEDAGEEDAGEEDAEKEEGEKEDAGDDAGSDDGEEDSTGGDEGEDNAEDSKGSEKNDPADTYRQVVALLDKDTKVDHIQSEYLRSALNNDLQSEVRVPVVEAIGRIGDYSKIQGCFKSMGKDVKKVISEEEKKFKSCMSKKKSEYQCSEDSFAAAKSKLSPITSKIKSCVSSKGRHHHHHH
Binder B1 has an IC50 [1] of 300 nM, a Kd [1] of 139 nM and a koff [2] of 0.943 s⁻¹. It also gave a Kd [3] of 2400 nM, a Kd2 (two-state model) [3] of 0.00261 s⁻¹ and a second Ka of the two-state model [3] of 0.000366 M⁻¹ s⁻¹. The koff [4] was 0.013 s⁻¹, the kon [4] was 61900 M⁻¹ s⁻¹ and the Kd [5] was 139 nM. For the same binder, the Kd2 (two-state model) [5] was 0.00194 s⁻¹, the second Ka of the two-state model [5] was 0.000981 M⁻¹ s⁻¹ and the kon [6] was 406000 M⁻¹ s⁻¹.
